Consider 4 molecules from PMC6004067 (Genes & Development, 2018).

Conditions in all cases: both partners purified
The target in assay [1] is T1, TATA-box-binding protein (TBP), full-length human (human, UniProt P20226 1-339).
T1 construct: human TBP, full length; Two preparations of free TBP are described (Flag/His double-tagged; GST-TBP cleaved with thrombin); also called wild-type TBP; source: E. coli BL21 (DE3), purified (Ni-NTA as Flag- and His-tagged protein, or cut with thrombin from GST-TBP)
T1 sequence (P20226 whole entry): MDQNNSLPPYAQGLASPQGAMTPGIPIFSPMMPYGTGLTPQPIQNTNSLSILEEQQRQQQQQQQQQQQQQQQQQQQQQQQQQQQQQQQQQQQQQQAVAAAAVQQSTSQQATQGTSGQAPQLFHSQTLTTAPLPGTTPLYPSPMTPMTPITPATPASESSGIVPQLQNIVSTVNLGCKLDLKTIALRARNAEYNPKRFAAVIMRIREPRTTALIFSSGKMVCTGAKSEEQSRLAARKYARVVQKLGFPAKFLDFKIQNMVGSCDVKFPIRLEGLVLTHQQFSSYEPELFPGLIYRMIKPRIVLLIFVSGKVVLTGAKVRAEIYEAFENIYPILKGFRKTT
The assay is described as follows: pull-down; Flag-tagged TFIIB or its mutants immobilized on Flag beads; TBP or SNAPc as analyte; buffer B2, 1 h at 4°C, four washes, Western blot.

The target in assay [2] is T2, GST-TBP, GST-tagged full-length human TBP (human, UniProt P20226 1-339).
T2 construct: human TBP, full length
T2 sequence (P20226 whole entry): as above
Kind of assay: pull-down; GST pull-down: GST-TBP, GST-TFIIB or TBP fragments on glutathione beads; analytes in buffer B2 (150 mM NaCl), 1 h at 4°C, four washes, Western blot.

Assay [3] addresses T1, TATA-box-binding protein (TBP), …. Described as above.

B1: TFIIB, full-length human, Flag- and His-tagged (natural protein, UniProt Q00403 1-316, looked up)
chain: MASTSRLDALPRVTCPNHPDAILVEDYRAGDMICPECGLVVGDRVIDVGSEWRTFSNDKATKDPSRVGDSQNPLLSDGDLSTMIGKGTGAASFDEFGNSKYQNRRTMSSSDRAMMNAFKEITTMADRINLPRNIVDRTNNLFKQVYEQKSLKGRANDAIASACLYIACRQEGVPRTFKEICAVSRISKKEIGRCFKLILKALETSVDLITTGDFMSRFCSNLCLPKQVQMAATHIARKAVELDLVPGRSPISVAAAAIYMASQASAEKRTQKEIGDIAGVADVTIRQSYRLIYPRAPDLFPTDFKFDTPVDKLPQL
notes: human TFIIB, full length; also called Flag-tagged TFIIB; wild-type TFIIB; source: E. coli BL21 (DE3), purified (Ni-NTA)
B1: the binding result in assay [1] and in assay [2] was “binds” in each case.

B2: TFIIB R169E/K188E, Flag-tagged (natural protein, human, UniProt Q00403 1-316, looked up)
chain: MASTSRLDALPRVTCPNHPDAILVEDYRAGDMICPECGLVVGDRVIDVGSEWRTFSNDKATKDPSRVGDSQNPLLSDGDLSTMIGKGTGAASFDEFGNSKYQNRRTMSSSDRAMMNAFKEITTMADRINLPRNIVDRTNNLFKQVYEQKSLKGRANDAIASACLYIACEQEGVPRTFKEICAVSRISEKEIGRCFKLILKALETSVDLITTGDFMSRFCSNLCLPKQVQMAATHIARKAVELDLVPGRSPISVAAAAIYMASQASAEKRTQKEIGDIAGVADVTIRQSYRLIYPRAPDLFPTDFKFDTPVDKLPQL
notes: human TFIIB with the double R169E/K188E substitution; Probably made as the full-length parent; also called double substitution
B2: the binding result in assay [1] is recorded as “binds”.

B3: TFIIB R169E, Flag-tagged (natural protein, human, UniProt Q00403 1-316, looked up)
chain: MASTSRLDALPRVTCPNHPDAILVEDYRAGDMICPECGLVVGDRVIDVGSEWRTFSNDKATKDPSRVGDSQNPLLSDGDLSTMIGKGTGAASFDEFGNSKYQNRRTMSSSDRAMMNAFKEITTMADRINLPRNIVDRTNNLFKQVYEQKSLKGRANDAIASACLYIACEQEGVPRTFKEICAVSRISKKEIGRCFKLILKALETSVDLITTGDFMSRFCSNLCLPKQVQMAATHIARKAVELDLVPGRSPISVAAAAIYMASQASAEKRTQKEIGDIAGVADVTIRQSYRLIYPRAPDLFPTDFKFDTPVDKLPQL
notes: human TFIIB with a single R169E substitution; Probably made as the full-length parent
Regarding B3, the binding result in assay [1] is listed as “binds”.

B4: GST-TFIIB (natural protein, human, UniProt Q00403 1-316, looked up)
chain: MASTSRLDALPRVTCPNHPDAILVEDYRAGDMICPECGLVVGDRVIDVGSEWRTFSNDKATKDPSRVGDSQNPLLSDGDLSTMIGKGTGAASFDEFGNSKYQNRRTMSSSDRAMMNAFKEITTMADRINLPRNIVDRTNNLFKQVYEQKSLKGRANDAIASACLYIACRQEGVPRTFKEICAVSRISKKEIGRCFKLILKALETSVDLITTGDFMSRFCSNLCLPKQVQMAATHIARKAVELDLVPGRSPISVAAAAIYMASQASAEKRTQKEIGDIAGVADVTIRQSYRLIYPRAPDLFPTDFKFDTPVDKLPQL
notes: TFIIB fused to GST
Turning to B4, the binding result in assay [3] is on record as “binds”.
